In PMC4652773, “Functional significance of protein assemblies predicted by the crystal structure of the restriction endonuclease BsaWI”:
One block for each molecule: values may come before it.

Assays:
[1] = target: BsaWI D145A (Bacillus stearothermophilus W1718); experiment: SEC; gel filtration at 5 μM loading concentration; Superdex column, room temperature, 20 mM Tris-HCl pH 7.4, 0.5 M NaCl, 5% glycerol; oligomeric state from the apparent Mw
[2] = target: BsaWI D175A (Bacillus stearothermophilus W1718); experiment: as above
[3] = target: BsaWI E128A (Bacillus stearothermophilus W1718)
[4] = target: BsaWI E128A (Bacillus stearothermophilus W1718); experiment: SEC; gel filtration at 5 μM loading concentration; Superdex column, room temperature, 20 mM Tris-HCl pH 7.4, 0.5 M NaCl, 5% glycerol; oligomeric state from the apparent Mw
[5] = target: BsaWI E128A (Bacillus stearothermophilus W1718); experiment: SEC; gel filtration of the tetramerization interface mutants at up to 25 μM protein; Superdex column, room temperature, 20 mM Tris-HCl pH 7.4, 0.5 M NaCl, 5% glycerol
[6] = target: BsaWI E128A (Bacillus stearothermophilus W1718); experiment: native gel or EMSA; 1 nM 33P-labeled 30-bp SP duplex with 0.02-1000 nM protein, 40 mM Tris-acetate pH 8.3, 0.1 mg/ml BSA, 10% glycerol, 5 mM CaCl2, room temperature; oligomeric state of the DNA-bound protein read from the mobility of the complex
[7] = target: BsaWI E128A&R130A (Bacillus stearothermophilus W1718)
[8] = target: BsaWI E128A&R130A (Bacillus stearothermophilus W1718); experiment: SEC; gel filtration at 5 μM loading concentration; Superdex column, room temperature, 20 mM Tris-HCl pH 7.4, 0.5 M NaCl, 5% glycerol; oligomeric state from the apparent Mw
[9] = target: BsaWI E128A&R130A (Bacillus stearothermophilus W1718); experiment: SEC; gel filtration of the tetramerization interface mutants at up to 25 μM protein; Superdex column, room temperature, 20 mM Tris-HCl pH 7.4, 0.5 M NaCl, 5% glycerol
[10] = target: BsaWI E128A&R130A (Bacillus stearothermophilus W1718); experiment: native gel or EMSA; 1 nM 33P-labeled 30-bp SP duplex with 0.02-1000 nM protein, 40 mM Tris-acetate pH 8.3, 0.1 mg/ml BSA, 10% glycerol, 5 mM CaCl2, room temperature; oligomeric state of the DNA-bound protein read from the mobility of the complex
[11] = target: BsaWI E128A&W262A (Bacillus stearothermophilus W1718)
[12] = target: BsaWI E128A&W262A (Bacillus stearothermophilus W1718); experiment: SEC; gel filtration at 5 μM loading concentration; Superdex column, room temperature, 20 mM Tris-HCl pH 7.4, 0.5 M NaCl, 5% glycerol; oligomeric state from the apparent Mw
[13] = target: BsaWI E128A&W262A (Bacillus stearothermophilus W1718); experiment: SEC; gel filtration of the tetramerization interface mutants at up to 25 μM protein; Superdex column, room temperature, 20 mM Tris-HCl pH 7.4, 0.5 M NaCl, 5% glycerol
[14] = target: BsaWI E128A&W262A (Bacillus stearothermophilus W1718); experiment: native gel or EMSA; 1 nM 33P-labeled 30-bp SP duplex with 0.02-1000 nM protein, 40 mM Tris-acetate pH 8.3, 0.1 mg/ml BSA, 10% glycerol, 5 mM CaCl2, room temperature; oligomeric state of the DNA-bound protein read from the mobility of the complex
[15] = target: BsaWI K85A (Bacillus stearothermophilus W1718); experiment: SEC; gel filtration at 5 μM loading concentration; Superdex column, room temperature, 20 mM Tris-HCl pH 7.4, 0.5 M NaCl, 5% glycerol; oligomeric state from the apparent Mw
[16] = target: BsaWI R130A (Bacillus stearothermophilus W1718)
[17] = target: BsaWI R130A (Bacillus stearothermophilus W1718); experiment: SEC; gel filtration at 5 μM loading concentration; Superdex column, room temperature, 20 mM Tris-HCl pH 7.4, 0.5 M NaCl, 5% glycerol; oligomeric state from the apparent Mw
[18] = target: BsaWI R130A (Bacillus stearothermophilus W1718); experiment: SEC; gel filtration of the tetramerization interface mutants at up to 25 μM protein; Superdex column, room temperature, 20 mM Tris-HCl pH 7.4, 0.5 M NaCl, 5% glycerol
[19] = target: BsaWI R130A (Bacillus stearothermophilus W1718); experiment: native gel or EMSA; 1 nM 33P-labeled 30-bp SP duplex with 0.02-1000 nM protein, 40 mM Tris-acetate pH 8.3, 0.1 mg/ml BSA, 10% glycerol, 5 mM CaCl2, room temperature; oligomeric state of the DNA-bound protein read from the mobility of the complex
[20] = target: BsaWI R130A&R259A (Bacillus stearothermophilus W1718)
[21] = target: BsaWI R130A&R259A (Bacillus stearothermophilus W1718); experiment: SEC; gel filtration at 5 μM loading concentration; Superdex column, room temperature, 20 mM Tris-HCl pH 7.4, 0.5 M NaCl, 5% glycerol; oligomeric state from the apparent Mw
[22] = target: BsaWI R130A&R259A (Bacillus stearothermophilus W1718); experiment: SEC; gel filtration of the tetramerization interface mutants at up to 25 μM protein; Superdex column, room temperature, 20 mM Tris-HCl pH 7.4, 0.5 M NaCl, 5% glycerol
[23] = target: BsaWI R130A&R259A (Bacillus stearothermophilus W1718); experiment: native gel or EMSA; 1 nM 33P-labeled 30-bp SP duplex with 0.02-1000 nM protein, 40 mM Tris-acetate pH 8.3, 0.1 mg/ml BSA, 10% glycerol, 5 mM CaCl2, room temperature; oligomeric state of the DNA-bound protein read from the mobility of the complex
[24] = target: BsaWI R259A (Bacillus stearothermophilus W1718)
[25] = target: BsaWI R259A (Bacillus stearothermophilus W1718); experiment: SEC; gel filtration at 5 μM loading concentration; Superdex column, room temperature, 20 mM Tris-HCl pH 7.4, 0.5 M NaCl, 5% glycerol; oligomeric state from the apparent Mw
[26] = target: BsaWI R259A (Bacillus stearothermophilus W1718); experiment: SEC; gel filtration of the tetramerization interface mutants at up to 25 μM protein; Superdex column, room temperature, 20 mM Tris-HCl pH 7.4, 0.5 M NaCl, 5% glycerol
[27] = target: BsaWI R259A (Bacillus stearothermophilus W1718); experiment: native gel or EMSA; 1 nM 33P-labeled 30-bp SP duplex with 0.02-1000 nM protein, 40 mM Tris-acetate pH 8.3, 0.1 mg/ml BSA, 10% glycerol, 5 mM CaCl2, room temperature; oligomeric state of the DNA-bound protein read from the mobility of the complex
[28] = target: BsaWI R259A&W262A (Bacillus stearothermophilus W1718)
[29] = target: BsaWI R259A&W262A (Bacillus stearothermophilus W1718); experiment: SEC; gel filtration at 5 μM loading concentration; Superdex column, room temperature, 20 mM Tris-HCl pH 7.4, 0.5 M NaCl, 5% glycerol; oligomeric state from the apparent Mw
[30] = target: BsaWI R259A&W262A (Bacillus stearothermophilus W1718); experiment: SEC; gel filtration of the tetramerization interface mutants at up to 25 μM protein; Superdex column, room temperature, 20 mM Tris-HCl pH 7.4, 0.5 M NaCl, 5% glycerol
[31] = target: BsaWI R259A&W262A (Bacillus stearothermophilus W1718); experiment: native gel or EMSA; 1 nM 33P-labeled 30-bp SP duplex with 0.02-1000 nM protein, 40 mM Tris-acetate pH 8.3, 0.1 mg/ml BSA, 10% glycerol, 5 mM CaCl2, room temperature; oligomeric state of the DNA-bound protein read from the mobility of the complex
[32] = target: restriction endonuclease BsaWI, wild type (Bacillus stearothermophilus W1718)
[33] = target: restriction endonuclease BsaWI, wild type (Bacillus stearothermophilus W1718); experiment: SEC; gel filtration at 5 μM loading concentration; Superdex column, room temperature, 20 mM Tris-HCl pH 7.4, 0.5 M NaCl, 5% glycerol; oligomeric state from the apparent Mw
[34] = target: restriction endonuclease BsaWI, wild type (Bacillus stearothermophilus W1718); experiment: SEC; gel filtration at 2.5-5 μM loading concentration (concentration series); Superdex column, room temperature, 20 mM Tris-HCl pH 7.4, 0.5 M NaCl, 5% glycerol
[35] = target: restriction endonuclease BsaWI, wild type (Bacillus stearothermophilus W1718); experiment: SEC; gel filtration of the BsaWI-DNA complex with the 30 bp SP oligoduplex; Superdex column, room temperature, 20 mM Tris-HCl pH 7.4, 0.5 M NaCl, 5% glycerol
[36] = target: restriction endonuclease BsaWI, wild type (Bacillus stearothermophilus W1718); experiment: native gel or EMSA; 1 nM 33P-labeled 30-bp SP duplex with 0.02-1000 nM protein, 40 mM Tris-acetate pH 8.3, 0.1 mg/ml BSA, 10% glycerol, 5 mM CaCl2, room temperature; oligomeric state of the DNA-bound protein read from the mobility of the complex
[37] = target: restriction endonuclease BsaWI, wild type (Bacillus stearothermophilus W1718); experiment: SEC; gel filtration at low loading concentrations (0.25-1 μM); Superdex column, room temperature, 20 mM Tris-HCl pH 7.4, 0.5 M NaCl, 5% glycerol
[38] = target: T1, BsaWI wt (UniProt Q6UQ65 1-272); experiment: EMSA; 5 mM Ca2+; lower mobility complex; EMSA: 40 mM Tris-acetate pH 8.3, 0.1 mg/ml BSA, 10% glycerol, 5 mM CaCl2 or 0.1 mM EDTA, 1 nM DNA, room temperature, 15 min; settings: protein: recombinant; chain copies: 4; label: 33P; blunt
T1 sequence: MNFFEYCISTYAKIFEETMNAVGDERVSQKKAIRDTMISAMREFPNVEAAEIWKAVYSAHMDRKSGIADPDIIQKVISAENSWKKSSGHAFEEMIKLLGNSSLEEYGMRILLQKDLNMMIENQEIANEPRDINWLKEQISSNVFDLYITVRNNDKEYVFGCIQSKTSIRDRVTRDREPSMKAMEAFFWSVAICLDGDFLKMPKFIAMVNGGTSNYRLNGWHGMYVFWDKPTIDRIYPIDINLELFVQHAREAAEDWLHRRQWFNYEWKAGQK

[39] = target: T1, BsaWI wt; experiment: crystal structure; 0.02 M CaCl2 in crystallization buffer; no Ca2+ seen; pre-specific complex; 2.40 A; EMSA: 40 mM Tris-acetate pH 8.3, 0.1 mg/ml BSA, 10% glycerol, 5 mM CaCl2 or 0.1 mM EDTA, 1 nM DNA, room temperature, 15 min; settings: protein: recombinant; chain copies: 4; blunt; self-complementary, 2 copies of strand

stoichiometry N [1]: 4
Molecule: BsaWI D145A (enzyme)

stoichiometry N [2]: 4
Molecule: BsaWI D175A (enzyme)

ratio of DNA cleavage rate constants kobs for the 2-site and 1-site substrates at optimal enzyme concentration [3]: 17.9 | stoichiometry N [4]: 2 | stoichiometry N [5]: 2 | stoichiometry N [6]: 2
Molecule: BsaWI E128A (enzyme)

ratio of DNA cleavage rate constants kobs for the 2-site and 1-site substrates at optimal enzyme concentration [7]: 1.8 | stoichiometry N [8]: 2 | stoichiometry N [9]: 2 | stoichiometry N [10]: 2
Molecule: BsaWI E128A&R130A (enzyme)

ratio of DNA cleavage rate constants kobs for the 2-site and 1-site substrates at optimal enzyme concentration [11]: 2.2 | stoichiometry N [12]: 2 | stoichiometry N [13]: 2 | stoichiometry N [14]: 2
Molecule: BsaWI E128A&W262A (enzyme)

stoichiometry N [15]: 4
Molecule: BsaWI K85A (enzyme)

ratio of DNA cleavage rate constants kobs for the 2-site and 1-site substrates at optimal enzyme concentration [16]: 2.4 | stoichiometry N [17]: 2 | stoichiometry N [18]: 2 | stoichiometry N [19]: 2
Molecule: BsaWI R130A (enzyme)

ratio of DNA cleavage rate constants kobs for the 2-site and 1-site substrates at optimal enzyme concentration [20]: 1.1 | stoichiometry N [21]: 2 | stoichiometry N [22]: 2 | stoichiometry N [23]: 2
Molecule: BsaWI R130A&R259A (enzyme)

ratio of DNA cleavage rate constants kobs for the 2-site and 1-site substrates at optimal enzyme concentration [24]: 14.4 | stoichiometry N [25]: 2 | stoichiometry N [26]: 2 | stoichiometry N [27]: 2
Molecule: BsaWI R259A (enzyme)

ratio of DNA cleavage rate constants kobs for the 2-site and 1-site substrates at optimal enzyme concentration [28]: 2.2 | stoichiometry N [29]: 2 | stoichiometry N [30]: 2 | stoichiometry N [31]: 2
Molecule: BsaWI R259A&W262A (enzyme)

ratio of DNA cleavage rate constants kobs for the 2-site and 1-site substrates at optimal enzyme concentration [32]: 20.6 | stoichiometry N [33]: 4 | stoichiometry N [34]: 4 | stoichiometry N [35]: 4 | stoichiometry N [36]: 4 | stoichiometry N [37]: 2
Molecule: restriction endonuclease BsaWI, wild type (enzyme)

B1: NSP (dsDNA)
DNA 1: AATGGGCTCGCACGCCTGGTATTATCGATTGTA
DNA 2: TACAATCGATAATACCAGGCGTGCGAGCCCATT
Kd [38]: ~10 nM

B2: SP14 (dsDNA)
DNA 1: CTCGACCGGTCGAG
DNA 2: CTCGACCGGTCGAG
binding result [39]: binds
